According to the Immune Epitope Database (IEDB):

How the values were obtained:
Experiment in all cases: IEDB peptide-MHC binding, purified MHC/competitive/radioactivity; ≥ and ≤ were set here for values at or beyond the usual limits of such assays
HLA-A*02:01 = biological target: HLA-A*02:01
HLA-A*02:02 = biological target: HLA-A*02:02
HLA-A*02:03 = biological target: HLA-A*02:03
HLA-A*68:02 = biological target: HLA-A*68:02
HLA-A*02:06 = biological target: HLA-A*02:06
[1] = source organism: Mammarenavirus machupoense
[2] = source organism: Vaccinia virus WR
[3] = source organism: Hepacivirus hominis
[4] = source organism: Influenza A virus

| Sequence | IC50 (HLA-A*02:01; [2]) | IC50 (HLA-A*02:02; [2]) | IC50 (HLA-A*02:03; [2]) | IC50 (HLA-A*68:02; [2]) | IC50 (HLA-A*02:06; [2]) | further results |
| --- | --- | --- | --- | --- | --- | --- |
| AMPGVLSYV | – | – | – | – | – | IC50 (HLA-A*02:01; [1]): 8.4 nM; IC50 (HLA-A*02:02; [1]): 4.2 nM; IC50 (HLA-A*02:03; [1]): 7.3 nM; IC50 (HLA-A*68:02; [1]): 834 nM; IC50 (HLA-A*02:06; [1]): 22 nM |
| FLLPSLATV | – | – | – | – | – | IC50 (HLA-A*02:01; source organism: SARS-CoV1): 0.34 nM; IC50 (HLA-A*02:02; source organism: SARS-CoV1): 0.13 nM; IC50 (HLA-A*02:03; source organism: SARS-CoV1): 0.2 nM; IC50 (HLA-A*68:02; source organism: SARS-CoV1): 16 nM; IC50 (HLA-A*02:06; source organism: SARS-CoV1): 0.41 nM |
| PASISSVLT | 1200 nM | 1380 nM | 1360 nM | 1490 nM | 1490 nM | – |
| LMTLDDLAI | 74 nM | 52 nM | 76 nM | 4410 nM | 288 nM | – |
| VIIMAINVFT | 641 nM | 320 nM | 820 nM | 740 nM | 674 nM | – |
| GTSVIRSNI | 666 nM | 386 nM | 45 nM | 96 nM | 1610 nM | – |
| DIISSKQYPA | 2890 nM | 552 nM | 2430 nM | 220 nM | 3100 nM | – |
| RLLLLGLLLL | – | – | – | – | – | IC50 (HLA-A*02:01; [3]): 496 nM; IC50 (HLA-A*02:02; [3]): 1200 nM; IC50 (HLA-A*02:03; [3]): 4250 nM; IC50 (HLA-A*68:02; [3]): 3610 nM; IC50 (HLA-A*02:06; [3]): 1050 nM |
| ALMIAAQVVV | – | – | – | – | – | IC50 (HLA-A*02:01; [3]): 129 nM; IC50 (HLA-A*02:02; [3]): 50 nM; IC50 (HLA-A*02:03; [3]): 71 nM; IC50 (HLA-A*68:02; [3]): 1420 nM; IC50 (HLA-A*02:06; [3]): 614 nM |
| MLSVVGFLV | – | – | – | – | – | IC50 (HLA-A*02:01; source organism: SARS-CoV1): 7.7 nM; IC50 (HLA-A*02:02; source organism: SARS-CoV1): 1 nM; IC50 (HLA-A*02:03; source organism: SARS-CoV1): 3.5 nM; IC50 (HLA-A*68:02; source organism: SARS-CoV1): 92 nM; IC50 (HLA-A*02:06; source organism: SARS-CoV1): 116 nM |
| LLFLVLIML | – | – | – | – | – | IC50 (HLA-A*02:01; source organism: SARS-CoV1): 294 nM; IC50 (HLA-A*02:02; source organism: SARS-CoV1): 154 nM; IC50 (HLA-A*02:03; source organism: SARS-CoV1): 1370 nM; IC50 (HLA-A*68:02; source organism: SARS-CoV1): 1250 nM; IC50 (HLA-A*02:06; source organism: SARS-CoV1): 573 nM |
| TIDAINKCV | 783 nM | 90 nM | 634 nM | 222 nM | 406 nM | – |
| NLWNTFTRL | – | – | – | – | – | IC50 (HLA-A*02:01; source organism: SARS-CoV1): 6.9 nM; IC50 (HLA-A*02:02; source organism: SARS-CoV1): 24 nM; IC50 (HLA-A*02:03; source organism: SARS-CoV1): 194 nM; IC50 (HLA-A*68:02; source organism: SARS-CoV1): 391 nM; IC50 (HLA-A*02:06; source organism: SARS-CoV1): 166 nM |
| LLWFLTGTFV | 0.32 nM | 2.4 nM | 9.2 nM | 0.13 nM | 18 nM | – |
| YLLFNHFSV | 0.27 nM | 1.2 nM | 1.6 nM | 39 nM | 0.73 nM | – |
| KLMGHFSWWT | – | – | – | – | – | IC50 (HLA-A*02:01; source organism: SARS-CoV1): 6.4 nM; IC50 (HLA-A*02:02; source organism: SARS-CoV1): 64 nM; IC50 (HLA-A*02:03; source organism: SARS-CoV1): 213 nM; IC50 (HLA-A*68:02; source organism: SARS-CoV1): 2080 nM; IC50 (HLA-A*02:06; source organism: SARS-CoV1): 99 nM |
| LLMCAVHPEL | – | – | – | – | – | IC50 (HLA-A*02:01; [3]): 54 nM; IC50 (HLA-A*02:02; [3]): 25 nM; IC50 (HLA-A*02:03; [3]): 177 nM; IC50 (HLA-A*68:02; [3]): 1350 nM; IC50 (HLA-A*02:06; [3]): 442 nM |
| AIFNNRNLA | 3180 nM | 272 nM | 98 nM | 372 nM | 7.1 nM | – |

| Sequence | IC50 (HLA-A*02:01; [2]) | IC50 (HLA-A*02:02; [2]) | IC50 (HLA-A*02:03; [2]) | IC50 (HLA-A*68:02; [2]) | IC50 (HLA-A*02:06; [2]) | further results |
| --- | --- | --- | --- | --- | --- | --- |
| ITMTTVYHI | – | – | – | – | – | IC50 (HLA-A*02:01; source organism: SARS-CoV1): 8.2 nM; IC50 (HLA-A*02:02; source organism: SARS-CoV1): 19 nM; IC50 (HLA-A*02:03; source organism: SARS-CoV1): 7.2 nM; IC50 (HLA-A*68:02; source organism: SARS-CoV1): 6.1 nM; IC50 (HLA-A*02:06; source organism: SARS-CoV1): 2.3 nM |
| NVLAWLYAA | – | – | – | – | – | IC50 (HLA-A*02:01; source organism: SARS-CoV1): 9.2 nM; IC50 (HLA-A*02:02; source organism: SARS-CoV1): 7.3 nM; IC50 (HLA-A*02:03; source organism: SARS-CoV1): 15 nM; IC50 (HLA-A*68:02; source organism: SARS-CoV1): 39 nM; IC50 (HLA-A*02:06; source organism: SARS-CoV1): 1.6 nM |
| IVDSMIIGHI | 1060 nM | 507 nM | 208 nM | 53 nM | 561 nM | – |
| KLPTLFGRGV | 273 nM | 190 nM | 33 nM | 509 nM | 53 nM | – |
| SLVSKHWEL | 2.7 nM | 1.2 nM | 36 nM | 378 nM | 35 nM | – |
| QLMCQPILL | – | – | – | – | – | IC50 (HLA-A*02:01; source organism: SARS-CoV1): 0.96 nM; IC50 (HLA-A*02:02; source organism: SARS-CoV1): 3 nM; IC50 (HLA-A*02:03; source organism: SARS-CoV1): 12 nM; IC50 (HLA-A*68:02; source organism: SARS-CoV1): 140 nM; IC50 (HLA-A*02:06; source organism: SARS-CoV1): 77 nM |
| LAYYNSCMLT | 485 nM | 12 nM | 16 nM | 4.9 nM | 86 nM | – |
| IMQVFFGYFA | – | – | – | – | – | IC50 (HLA-A*02:01; source organism: SARS-CoV1): 290 nM; IC50 (HLA-A*02:02; source organism: SARS-CoV1): 590 nM; IC50 (HLA-A*02:03; source organism: SARS-CoV1): 1570 nM; IC50 (HLA-A*68:02; source organism: SARS-CoV1): 4500 nM; IC50 (HLA-A*02:06; source organism: SARS-CoV1): 51 nM |
| MAFDISVNA | 149 nM | 191 nM | 15 nM | 1.8 nM | 13 nM | – |
| ILASFSAST | – | – | – | – | – | IC50 (HLA-A*02:01; source organism: SARS-CoV1): 16 nM; IC50 (HLA-A*02:02; source organism: SARS-CoV1): 1.6 nM; IC50 (HLA-A*02:03; source organism: SARS-CoV1): 5.3 nM; IC50 (HLA-A*68:02; source organism: SARS-CoV1): 1220 nM; IC50 (HLA-A*02:06; source organism: SARS-CoV1): 457 nM |
| AIFNNRNLAA | 1330 nM | 450 nM | 103 nM | 2860 nM | 774 nM | – |
| KMAVEVGSI | 155 nM | 31 nM | 2.8 nM | 806 nM | 119 nM | – |
| FVFTLTVPS | – | – | – | – | – | IC50 (HLA-A*02:01; [4]): 514 nM; IC50 (HLA-A*02:02; [4]): 394 nM; IC50 (HLA-A*02:03; [4]): 270 nM; IC50 (HLA-A*68:02; [4]): 25 nM; IC50 (HLA-A*02:06; [4]): 18 nM |
| FVTDYVHEGV | 48 nM | 24 nM | 1.7 nM | 1.6 nM | 11 nM | – |
| TISGNIYSAL | 1110 nM | 9.3 nM | 89 nM | 19 nM | 2670 nM | – |
| IVVALSSLV | 108 nM | 27 nM | 3.9 nM | 5.4 nM | 8.2 nM | – |
| QLMYDIINSV | 0.78 nM | 1.9 nM | 0.14 nM | 165 nM | 5.6 nM | – |
